Data reported in the supplement of paper PMC11246515.
± gives the standard deviation of the averaged measurements.

Experiment: total protein half-life in vivo (active degradation + dilution); higher = more stable protein
[1] = E. coli NCM3722 delta-clpP delta-lon delta-hslV, growth: N-lim chemostat, doubling time 6 h
[2] = E. coli NCM3722 delta-clpP, growth: N-lim chemostat, doubling time 6 h
[3] = E. coli NCM3722 delta-hslV, growth: N-lim chemostat, doubling time 6 h
[4] = E. coli NCM3722 delta-lon, growth: N-lim chemostat, doubling time 6 h
[5] = E. coli NCM3722 delta-smpB, growth: N-lim chemostat, doubling time 6 h
[6] = wild type E. coli NCM3722, growth: C-lim chemostat, doubling time 3 h
[7] = wild type E. coli NCM3722, growth: C-lim chemostat, doubling time 6 h
[8] = wild type E. coli NCM3722, growth: C-lim chemostat, doubling time 12 h
[9] = wild type E. coli NCM3722, growth: N-lim chemostat, doubling time 6 h
[10] = wild type E. coli NCM3722, growth: N-lim chemostat, doubling time 12 h
[11] = wild type E. coli NCM3722, growth: P-lim chemostat, doubling time 6 h
[12] = wild type E. coli NCM3722, growth: P-lim chemostat, doubling time 12 h

Sequence | total protein half-life in vivo [1] | total protein half-life in vivo [2] | total protein half-life in vivo [3] | total protein half-life in vivo [4] | total protein half-life in vivo [5] | total protein half-life in vivo [6] | total protein half-life in vivo [7] | total protein half-life in vivo [8] | total protein half-life in vivo [9] | total protein half-life in vivo [10] | total protein half-life in vivo [11] | total protein half-life in vivo [12]
MTQTLSQLENSGAFIERHIGPDAAQQQEMLNAVGAQSLNALTGQIVPKDIQLATPPQVGAPATEYAALAELKAIASRNKRFTSYIGMGYTAVQLPPVILRNMLENPGWYTAYTPYQPEVSQGRLEALLNFQQVTLDLTGLDMASASLLDEATAAAEAMAMAKRVSKLKNANRFFVASDVHPQTLDVVRTRAETFGFEVIVDDAQKVLDHQDVFGVLLQQVGTTGEIHDYTALISELKSRKIVVSVAADIMALVLLTAPGKQGADIVFGSAQRFGVPMGYGGPHAAFFAAKDEYKRSMPGRIIGVSKDAAGNTALRMAMQTREQHIRREKANSNICTSQVLLANIASLYAVYHGPVGLKRIANRIHRLTDILAAGLQQKGLKLRHAHYFDTLCVEVADKAGVLTRAEAAEINLRSDILNAVGITLDETTTRENVMQLFNVLLGDNHGLDIDTLDKDVAHDSRSIQPAMLRDDEILTHPVFNRYHSETEMMRYMHSLERKDLALNQAMIPLGSCTMKLNAAAEMIPITWPEFAELHPFCPPEQAEGYQQMIAQLADWLVKLTGYDAVCMQPNSGAQGEYAGLLAIRHYHESRNEGHRDICLIPASAHGTNPASAHMAGMQVVVVACDKNGNIDLTDLRAKAEQAGDNLSCIMVTYPSTHGVYEETIREVCEVVHQFGGQVYLDGANMNAQVGITSPGFIGADVSHLNLHKTFCIPHGGGGPGMGPIGVKAHLAPFVPGHSVVQIEGMLTRQGAVSAAPFGSASILPISWMYIRMMGAEGLKKASQVAILNANYIASRLQDAFPVLYTGRDGRVAHECILDIRPLKEETGISELDIAKRLIDYGFHAPTMSFPVAGTLMVEPTESESKVELDRFIDAMLAIRAEIDQVKAGVWPLEDNPLVNAPHIQSELVAEWAHPYSREVAVFPAGVADKYWPTVKRLDDVYGDRNLFCSCVPISEYQ | 4.44 ± 0.46 h | 3.621 ± 0.013 h | 4.09 ± 0.11 h | 4 ± 0.3 h | 3.81 ± 0.18 h | 3.022 ± 0.029 h | 4.95 ± 0.14 h | 8.75 ± 0.28 h | 4.02 ± 0.13 h | 6.79 ± 0.18 h | 6.117 ± 0.035 h | 11 ± 0.55 h
MDDIVNSVPSWMFTAIIAVCILFIIGIIFARLYRRASAEQAFVRTGLGGQKVVMSGGAIVMPIFHEIIPINMNTLKLEVSRSTIDSLITKDRMRVDVVVAFFVRVKPSVEGIATAAQTLGQRTLSPEDLRMLVEDKFVDALRATAAQMTMHELQDTRENFVQGVQNTVAEDLSKNGLELESVSLTNFNQTSKEHFNPNNAFDAEGLTKLTQETERRRRERNEVEQDVEVAVREKNRDALSRKLEIEQQEAFMTLEQEQQVKTRTAEQNARIAAFEAERRREAEQTRILAERQIQETEIDREQAVRSRKVEAEREVRIKEIEQQQVTEIANQTKSIAIAAKSEQQSQAEARANLALAEAVSAQQNVETTRQTAEADRAKQVALIAAAQDAETKAVELTVRAKAEKEAAEMQAAAIVELAEATRKKGLAEAEAQRALNDAINVLSDEQTSLKFKLALLQALPAVIEKSVEPMKSIDGIKIIQVDGLNRGGAAGDANTGNVGGGNLAEQALSAALSYRTQAPLIDSLLNEIGVSGGSLAALTSPLTSTTPVEEKAE |  | 4.22 h |  |  | 3.89 h |  |  | 9.53 h | 3.81 h |  | 6.67 h | 12.3 h
MNTSHVRVVTHMCGFLVWLYSLSMLPPMVVALFYKEKSLFVFFITFVIFFCIGGGAWYTTKKSGIQLRTRDGFIIIVMFWILFSVISAFPLWIDSELNLTFIDALFEGVSGITTTGATVIDDVSSLPRAYLYYRSQLNFIGGLGVIVLAVAVLPLLGIGGAKLYQSEMPGPFKDDKLTPRLADTSRTLWITYSLLGIACIVCYRLAGMPLFDAICHGISTVSLGGFSTHSESIGYFNNYLVELVAGSFSLLSAFNFTLWYIVISRKTIKPLIRDIELRFFLLIALGVIIVTSFQVWHIGMYDLHGSFIHSFFLASSMLTDNGLATQDYASWPTHTIVFLLLSSFFGGCIGSTCGGIKSLRFLILFKQSKHEINQLSHPRALLSVNVGGKIVTDRVMRSVWSFFFLYTLFTVFFILVLNGMGYDFLTSFATVAACINNMGLGFGATASSFGVLNDIAKCLMCIAMILGRLEIYPVIILFSGFFWRS |  | > 8 h | 5.64 ± 0.43 h |  | 6.77 h | > 4 h |  | 13.5 h |  | > 16 h | > 8 h | 
MKRVSQMTALAMALGLACASSWAAELAKPLTLDQLQQQNGKAIDTRPSAFYNGWPQTLNGPSGHELAALNLSASWLDKMSTEQLNAWIKQHNLKTDAPVALYGNDKDVDAVKTRLQKAGLTHISILSDALSEPSRLQKLPHFEQLVYPQWLHDLQQGKEVTAKPAGDWKVIEAAWGAPKLYLISHIPGADYIDTNEVESEPLWNKVSDEQLKAMLAKHGIRHDTTVILYGRDVYAAARVAQIMLYAGVKDVRLLDGGWQTWSDAGLPVERGTPPKVKAEPDFGVKIPAQPQLMLDMEQARGLLHRQDASLVSIRSWPEFIGTTSGYSYIKPKGEIAGARWGHAGSDSTHMEDFHNPDGTMRSADDITAMWKAWNIKPEQQVSFYCGTGWRASETFMYARAMGWKNVSVYDGGWYEWSSDPKNPVATGERGPDSSK | 5.98 ± 1.8 h | 6.55 ± 1.7 h | 6.79 ± 0.81 h | 6.48 ± 0.13 h | 6.47 ± 0.44 h | 3.2 ± 0.56 h | 6.183 ± 0.011 h | 12.3 ± 0.77 h | 6.69 ± 1.1 h | 13 ± 1.9 h | 6.19 ± 0.064 h | 14.4 ± 0.58 h
MLVYWLDIVGTAVFAISGVLLAGKLRMDPFGVLVLGVVTAVGGGTIRDMALDHGPVFWVKDPTDLVVAMVTSMLTIVLVRQPRRLPKWMLPVLDAVGLAVFVGIGVNKAFNAEAGPLIAVCMGVITGVGGGIIRDVLAREIPMILRTEIYATACIIGGIVHATAYYTFSVPLETASMMGMVVTLLIRLAAIRWHLKLPTFALDENGR [P0AFP0] | 6.04 h | 5.6 h |  |  |  | 2.95 h |  | 9.77 h |  |  |  | 
MGSEISKKDITRLGFRSSLLQASFNYERMQAGGFTWAMLPILKKIYKDDKPGLSAAMKDNLEFINTHPNLVGFLMGLLISMEEKGENRDTIKGLKVALFGPIAGIGDAIFWFTLLPIMAGICSSFASQGNLLGPILFFAVYLLIFFLRVGWTHVGYSVGVKAIDKVRENSQMIARSATILGITVIGGLIASYVHINVVTSFAIDNTHSVALQQDFFDKVFPNILPMAYTLLMYYFLRVKKAHPVLLIGVTFVLSIVCSAFGIL |  |  |  |  |  |  |  |  |  |  |  | 4.67 h
MTTSMLNAKLLPTAPSAAVVVVRVVVVVGNAP | 3.54 h |  |  |  |  |  |  |  |  |  |  | 
MTVQTSKNPQVDIAEDNAFFPSEYSLSQYTSPVSDLDGVDYPKPYRGKHKILVIAADERYLPTDNGKLFSTGNHPIETLLPLYHLHAAGFEFEVATISGLMTKFEYWAMPHKDEKVMPFFEQHKSLFRNPKKLADVVASLNADSEYAAIFVPGGHGALIGLPESQDVAAALQWAIKNDRFVISLCHGPAAFLALRHGDNPLNGYSICAFPDAADKQTPEIGYMPGHLTWYFGEELKKMGMNIINDDITGRVHKDRKLLTGDSPFAANALGKLAAQEMLAAYAG | 5.25 ± 1.1 h | 5.29 ± 1.6 h | 4.05 ± 0.35 h | 4.62 ± 0.19 h | 4.27 ± 0.24 h | 2.88 ± 0.26 h | 5.19 ± 0.35 h | 10.6 ± 0.23 h | 3.97 ± 0.85 h | 7.51 ± 0.27 h | 5.31 ± 0.43 h | 10.5 ± 1.5 h
